Bridges are numbered along the chain shown (N, C = ends). Where no end group is shown, it is not given here. [ ]: non-standard residue; d: D form. Nle = CCCC[C@H](N)C(=O)O; Nva = CCC[C@H](N)C(=O)O; L5A = not defined here; A1 = not defined here; K1 = not defined here; K5 = not defined here; Aib = CC(C)(N)C(=O)O
Tests used:
[1] = test system: mouse model of environmental enteric dysfunction (EED); assay: Weaning undernutrition mouse model of environmental enteric dysfunction (EED); assay type: in vivo, mice; conditions: animals weaned to CD and to RBD diet, vs untreated
Protocol: A weaning undernutrition model was used to assess the ability of GLP2-2G-10Nle-1K-EX4-K5 to treat environmental enteric dysfunction (EED). All dams were placed on an isocaloric Northeast Brazil (Regional Basic Diet—RBD), which was moderately deficient in protein, fat and minerals when their pups were 10 days old. At weaning (3 weeks of age), pups were placed on either a standard control diet (CD) or continued on RBD. At 4 weeks of age, weanlings were given drug or placebo (0.1 mg/kg formulated in PBS (vehicle)) once a day subcutaneously for 2-3 weeks. Bodyweight and food consumption were measured twice weekly. Stool was collected at weaning, 6 weeks of age, and 8 weeks of age for calorimetry and microbiome. Oral FITC-dextran was used as a measurement of barrier function. At 6 weeks of age, mice were euthanized, and jejunal tissue was collected for morphology, immunohistochemistry, and for chamber analysis of transmucosal resistance and permeability.

[2] = Pharmacokinetics of peptides in mice (plasma levels by GLP-2R cell based reporter assay); conditions: mouse, in vivo
mouse GLP2R (mouse) = mouse GLP2R (mouse) (UniProt Q5IXF8); assay: cell-based or functional assay
Sequence of mouse GLP2R (mouse) (Q5IXF8 whole entry): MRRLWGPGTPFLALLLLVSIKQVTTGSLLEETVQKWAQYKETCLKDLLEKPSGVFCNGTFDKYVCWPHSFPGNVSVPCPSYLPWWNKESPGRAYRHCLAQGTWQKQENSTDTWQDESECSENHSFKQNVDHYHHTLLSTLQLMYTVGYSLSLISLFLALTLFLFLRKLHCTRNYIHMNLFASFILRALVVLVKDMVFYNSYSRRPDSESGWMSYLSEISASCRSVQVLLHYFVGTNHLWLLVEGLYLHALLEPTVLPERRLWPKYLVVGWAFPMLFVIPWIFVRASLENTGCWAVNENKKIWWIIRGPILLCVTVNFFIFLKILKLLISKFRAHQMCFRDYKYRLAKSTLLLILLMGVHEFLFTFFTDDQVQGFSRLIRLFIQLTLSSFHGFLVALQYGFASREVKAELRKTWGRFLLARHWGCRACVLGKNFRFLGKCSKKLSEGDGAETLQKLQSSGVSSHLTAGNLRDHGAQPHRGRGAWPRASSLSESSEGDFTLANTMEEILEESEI

GCGR = assay: cell-based or functional assay
GIPR = assay: cell-based or functional assay
GLP-1R = assay: cell-based or functional assay
[3] = molecular target: cyno monkey GLP2R (cyno monkey) (UniProt G1E7B0); assay: cell-based or functional assay
human GLP-2R = molecular target: T1, human GLP-2R (human, UniProt O95838 1-553); assay: cell-based or functional assay
T1 sequence (looked up): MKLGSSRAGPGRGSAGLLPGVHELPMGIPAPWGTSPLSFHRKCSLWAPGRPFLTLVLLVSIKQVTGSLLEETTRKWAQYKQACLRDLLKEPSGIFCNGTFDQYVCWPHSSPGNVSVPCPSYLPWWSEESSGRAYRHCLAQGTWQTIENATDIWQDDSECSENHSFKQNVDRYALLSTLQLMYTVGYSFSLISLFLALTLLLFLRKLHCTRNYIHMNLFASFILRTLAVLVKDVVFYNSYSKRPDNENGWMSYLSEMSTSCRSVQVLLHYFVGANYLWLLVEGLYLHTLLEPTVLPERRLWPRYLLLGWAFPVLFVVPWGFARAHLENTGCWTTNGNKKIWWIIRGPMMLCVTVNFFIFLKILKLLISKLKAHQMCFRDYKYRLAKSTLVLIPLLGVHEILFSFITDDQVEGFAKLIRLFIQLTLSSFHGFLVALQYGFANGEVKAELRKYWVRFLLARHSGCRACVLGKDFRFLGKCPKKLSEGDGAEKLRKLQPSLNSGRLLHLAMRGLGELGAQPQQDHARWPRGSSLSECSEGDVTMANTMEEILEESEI

[4] = molecular target: 168 GPCR targets (gpcrMAX Panel by DiscoverRx); assay: cell-based or functional assay

Row | Molecule | GLP-2R - cAMP 0% FBS/nM (EC50, CRE-luciferase reporter) (human GLP-2R) [nM] | further results
1 | CC[C@H](C)[C@H](NC(=O)[C@H](Cc1ccccc1)NC(=O)[C@H](CC(=O)O)NC(=O)[C@H](CCCNC(=N)N)NC(=O)[C@H](C)NC(=O)[C@H](C)NC(=O)[C@H](CC(C)C)NC(=O)[C@H](CC(N)=O)NC(=O)[C@H](CC(=O)O)NC(=O)[C@H](CC(C)C)NC(=O)[C@@H](NC(=O)[C@@H](NC(=O)[C@H](CC(N)=O)NC(=O)[C@H](CCSC)NC(=O)[C@H](CCC(=O)O)NC(=O)[C@H](CC(=O)O)NC(=O)[C@H](CO)NC(=O)[C@H](Cc1ccccc1)NC(=O)[C@H](CO)NC(=O)CNC(=O)[C@H](CC(=O)O)NC(=O)[C@H](C)NC(=O)[C@@H](N)Cc1c[nH]cn1)[C@@H](C)O)[C@@H](C)CC)C(=O)N[C@@H](CC(N)=O)C(=O)N[C@@H](Cc1c[nH]c2ccccc12)C(=O)N[C@@H](CC(C)C)C(=O)N[C@H](C(=O)N[C@@H](CCC(N)=O)C(=O)N[C@H](C(=O)N[C@@H](CCCCN)C(=O)N[C@H](C(=O)N[C@H](C(=O)N[C@@H](CC(=O)O)C(=O)O)[C@@H](C)O)[C@@H](C)CC)[C@@H](C)O)[C@@H](C)CC [GLP-2, reference compound] | – | length of the small intestine [1]: significant increase
2 | CC[C@H](C)[C@@H]1NC(=O)[C@H](Cc2ccccc2)NC(=O)[C@H](CC(=O)O)NC(=O)[C@H](CCCNC(=N)N)NC(=O)[C@H](C)NC(=O)[C@H](C)NC(=O)[C@@H](NC(=O)[C@H](CC(N)=O)NC(=O)[C@H](CC(=O)O)NC(=O)[C@H](CC(C)C)NC(=O)[C@@H](NC(=O)[C@@H](NC(=O)[C@H](CC(N)=O)NC(=O)[C@H](CCSC)NC(=O)[C@H](CCC(=O)O)NC(=O)[C@H](CC(=O)O)NC(=O)[C@H](CO)NC(=O)[C@H](Cc2ccccc2)NC(=O)[C@H](CO)NC(=O)CNC(=O)[C@H](CC(=O)O)NC(=O)CNC(=O)[C@@H](N)Cc2c[nH]cn2)[C@@H](C)O)[C@@H](C)CC)CCCCNC(=O)CN(C(=O)CCNC(=O)CCOCCOCCNC(=O)CCOCCOCCNC(=O)CC[C@H](NC(=O)CCCCCCCCCCCCCCCCC(=O)O)C(=O)O)CC(=O)NCCCC[C@@H](C(=O)N[C@@H](Cc2c[nH]c3ccccc23)C(=O)N[C@@H](CC(C)C)C(=O)N[C@H](C(=O)N[C@@H](CCC(N)=O)C(=O)N[C@H](C(=O)N[C@@H](CCCCN)C(=O)N[C@H](C(=O)N[C@H](C(=O)N[C@@H](CC(=O)O)C(=O)N2CCC[C@H]2C(=O)N[C@@H](CO)C(=O)N[C@@H](CO)C(=O)NCC(=O)N[C@@H](C)C(=O)N2CCC[C@H]2C(=O)N2CCC[C@H]2C(=O)N2CCC[C@H]2C(=O)N[C@@H](CO)C(N)=O)[C@@H](C)O)[C@@H](C)CC)[C@@H](C)O)[C@@H](C)CC)NC1=O [Conjugate 17] | – | half-life ([2]; 10 nmol/kg, read-out: Mouse T½/h (converted)): 8.53 ± 0.044 h; clearance ([2]; CD1 female mice, 10 nmol/kg iv or sc, read-out: Mouse CL/(mL/h/kg) (converted)): 14.4 mL/h/kg
3 | Apraglutide (peptide) | – | IC50 [nM] (665/615 ratio, free cAMP) (mouse GLP2R (mouse)): 0.04 nM
4 | GLP-2 (ligand) | – | IC50 [nM] (665/615 ratio, free cAMP) (GCGR): > 500 nM; IC50 [nM] (665/615 ratio, free cAMP) (GIPR): > 500 nM; IC50 [nM] (665/615 ratio, free cAMP) (GLP-1R): > 500 nM
5 | GIP (ligand) | – | IC50 [nM] (665/615 ratio, free cAMP) (GIPR): 0.02 nM
6 | Teduglutide (peptide) | – | EC50 [nM] (ratio of 665 to 615) [3]: 0.009 nM; IC50 [nM] (665/615 ratio, free cAMP) (mouse GLP2R (mouse)): 0.07 nM
7 | HGDGSFSDE[Nva]NTILDNCAARDFICWLIQTKITDPSSGAPPPS (linker 17-24 via L5A; reading uncertain) [Conjugate 6: GLP2-2G-10Nva-1-EX4 (SEQ ID NO. 6) with staple L5A at positions 17, 24] | 5.74 | –
8 | HGDGSFSDK[Nle]NTILDKLAARDFINWLIQTKITDPSSGAPPPS (linker 9-16 via K5; reading uncertain) [Conjugate 24: GLP2-2G-10Nle-5K-EX4 (SEQ ID NO. 19) with staple K5 at positions 9, 16] | 8.36 | –
9 | HGDGSFSDE[Nle]NSLLDNKAARDFIKWLIQTKITDPSSGAPPPS (bridge 17-24; not fully specified (bridges); ends not checked) [Conjugate 13: GLP2-2G-10Nle-12S-13L-1K-EX4 (SEQ ID NO. 12) with staple K5 at positions 17, 24] | 3.78 | –
10 | HGDGSFSDE[Nle]NT[Nle][Nle]DNKAARDFIKWLIQTKITDPSSGAPPPS (linker 17-24 via K5; reading uncertain) [Conjugate 15: GLP2-2G-10Nle-13Nle-14Nle-1K-EX4 (SEQ ID NO. 14) with staple K5 at positions 17, 24] | 1.99 | –
11 | HGDGSFSDEMNTILDNCAARDFICWLIQTKITDPSSGAPPPS (linker 17-24 via L5A; not fully specified; ends not checked) [Conjugate 1: GLP2-2G-1-EX4 (SEQ ID NO. 1) with staple L5A at positions 17, 24] | – | PathHunter beta-arrestin enzyme fragment complementation, agonist mode, % activity [4]: < 30 % activity; PathHunter beta-arrestin enzyme fragment complementation, antagonist mode, % inhibition [4]: < 35 % inhibition
12 | HGDGSFSDKMNTILDKLAARDFINWLIQTKITDPSSGAPPPS (bridge 9-16; not fully specified (bridges); ends not checked) [Conjugate 23: GLP2-2G-5K-EX4 (SEQ ID NO. 18) with staple K5 at positions 9, 16] | 1.25 | –
13 | HGDGSFSDEVNTILDNCAARDFICWLIQTKITDPSSGAPPPS (linker 17-24 via L5A; reading uncertain) [Conjugate 7: GLP2-2G-10V-1-EX4 (SEQ ID NO. 7) with staple L5A at positions 17, 24] | 1.45 | –
14 | HGDGSFSDEMCTILDNLCARDFINWLIQTKITDPSSGAPPPS (linker 11-18 via L5A; ends not checked) [Conjugate 10: GLP2-2G-6-EX4 (SEQ ID NO. 9) with staple L5A at positions 11, 18] | 2.09 | GLP-2R - cAMP 10% FBS/nM (EC50, CRE-luciferase reporter) (human GLP-2R): 102 nM
15 | HGDGSFSDELNTILDNKAARDFIKWLIQTKITDPSSGAPPPS (not fully specified; here or on the partner: Nle at 10; staple K5 (lactam) attached at positions 17, 24 (lysines)) [Conjugate 11: GLP2-2G-10Nle-1K-EX4 (SEQ ID NO. 10) with staple K5 at positions 17, 24] | – | PathHunter beta-arrestin enzyme fragment complementation, agonist mode, % activity [4]: < 30 % activity; PathHunter beta-arrestin enzyme fragment complementation, antagonist mode, % inhibition [4]: < 35 % inhibition
16 | HGDGSFSDEMNTILDNXAARDFIXWLIQTKITDPSSGAPPPS (Orn at 17 and 24; staple K5 attached at positions 17, 24 (ornithines)) [Conjugate 25: GLP2-2G-1Orn-EX4 (SEQ ID NO. 20) with staple K5 at positions 17, 24] | 2.11 | –
17 | HGDGSFSDEMNTILDNKAARDFIKWLIQTKITDPSSGAPPPS (bridge 17-24 via K1; ends not checked) [Conjugate 19: GLP2-2G-1K-EX4 (SEQ ID NO. 16) with staple K1 at positions 17, 24] | 0.15 | –
18 | HGDGSFSDELNTILDNCAARDFICWLIQTKITDPSSGAPPPS (linker 17-24 via L5A; reading uncertain) [Conjugate 3: GLP2-2G-10L-1-EX4 (SEQ ID NO. 3) with staple L5A at positions 17, 24] | 0.87 | –
19 | HGDGSFSDEMNTILDNKAARDFIKWLIQTKITDPSSGAPPPS (bridge 17-24; not fully specified (bridges); ends not checked) [Conjugate 17: GLP2-2G-1K-EX4 (SEQ ID NO. 16) with staple K5 at positions 17, 24] | 1.07 | –
20 | HGDGSFSDEMNTILDNKAARDFIKWLIQTKITDPSSGAPPPS (bridge 17-24 via A1; ends not checked) [Conjugate 20: GLP2-2G-1K-EX4 (SEQ ID NO. 16) with staple A1 at positions 17, 24] | 0.09 | –
21 | HGDGSFSDE[Nle]NTA[Nle]DNKAARDFIKWLIQTKITDPSSGAPPPS (linker 17-24 via K5; reading uncertain) [Conjugate 14: GLP2-2G-10Nle-13A-14Nle-1K-EX4 (SEQ ID NO. 13) with staple K5 at positions 17, 24] | 2.68 | –
22 | HGDGSFSDE[Nle]ATA[Nle]DAKAARDFIKWLIQTKITDPSSGAPPPS (linker 17-24 via K5; reading uncertain) | 1.33 | –
23 | HGDGSFSDE[Nle][dF]TILDNKAARDFIKWLIQTKITDPSSGAPPPS (bridge 17-24; not fully specified (bridges); ends not checked) [Conjugate 12: GLP2-2G-10Nle-11f-1K-EX4 (SEQ ID NO. 11) with staple K5 at positions 17, 24] | 2.13 | –
24 | HGDGSFSDE[Aib]NTILDNCAARDFICWLIQTKITDPSSGAPPPS (linker 17-24 via L5A; reading uncertain) [Conjugate 5: GLP2-2G-10Aib-1-EX4 (SEQ ID NO. 5) with staple L5A at positions 17, 24] | 8.71 | –
25 | HGDGSFSDEM[dF]TILDNKAARDFIKWLIQTKITDPSSGAPPPS (linker 17-24 via K5; reading uncertain) [Conjugate 18: GLP2-2G-11f-1K-EX4 (SEQ ID NO. 17) with staple K5 at positions 17, 24] | 1.41 | –

Reference: patent US20230057847A1, “GLP2 RECEPTOR AGONISTS AND METHODS OF USE” (The Scripps Research Institute, priority 2019, published 2023)
